Test results as given in the DeepSol protein solubility set.

Assay: soluble on expression in E. coli; label from the status in PepcDB or PDB records

| Sequence | soluble on expression in E. coli |
| --- | --- |
| MEEGYRLKFIFIGNQNNNIKNKNFSNPHNILFDSKKDIILTQDLCEEFLNLNINKQDHAIELLKKELSPLLFEDSLSYLKEEFINEKLEFNISNLASRYTANNDVDTINNKIIEGISITNNFKYTNISYLKELKGYIENDILDKMKSKYAKNIYLNFKKIFSNLEQSVNNYLELEEEFEEKKKYLSEIYELIDEINIDPYIFLTEHNECNIYKISENEKLELQTYMSKIEKVLLKYQTYLKETCKECLFYPYLLVQGEAGIGKSHLLAHLSKKLRDENHIIYLFLGQFFTKNEDPWHQILNDLEVTNSVDNFLRSISNKAKETKKRAFIIIDALNEGEGKRLWGNYFQSFINHIKKYSNIALIFSIRTPFEDVILPKNAIQDNNIVVFQHEGFSKEENYNPIVSFCDFYGLELPKLPILNPEFNNPLFLKLMCEYCVNKFKEFDQTISVAELFTNVLKTVNINLSKEDKFDFDKNINVVQKVIKGLVELMNDSEFNQLNYEESYTVVNNIAKEYVQKSNRFLEALIDENILIKNTGYKGEMIIYFSYERMGDYFLSEYLLEKYRNVDKRDLVTKLQSDEKVTRYFQKEDDLSYNRGLINELFIKLANEFNIELFEVFPQFKNNYNMIYSFINSLVWRKDGSISKHTKCYISDNVIPYDAFRNNFLDVLLIKMPQKNHPLNIWALHKLLKQCNLGKRDFLWTQYISINNEKVFEIINWLFSNYKKLDEETAEKYMIFLTWIFSATNNKLRDLGTKSLVKLFKTFPTKIIGLLKLFENNNDPYIVERLYASVLGATLRIDICEIHIEIANYIYEEIFDKEMVYPHILMRDYARQTIEYISLSKDISNINLEKIRPPYKSNWYKKEYSNLNIDDYIKSLKNKLDSHLHFSIDKIKNSMTTEYGRGTGAYGDFGRYVFGYAVRNWVKGFKSDQDLSNIALMRIFEMGYDAKLHGEFDMWVNRYDNFNNSIERISKKYQWIAYYEILAKLVDKFPDVQYSGLWDDYIRDIDPTLLLLEIDK | not soluble |
| MSLKSIFISGAANGIGKAVALKFLHEGWLVGAYDLAEITYSHPNLRWGYLNVRQSESWDKALEDFATHTGGTIDVVDNNAGVIIEGPLQDAEEGSVDKLLAINVNGVTLGARAAHPYLARTPGAQLLNMSSASAVYGQPQIAVYSASKFYVAGLTEALNLEWRKDDIRVVDVWPLWAKTDLVNGVKAKSLKRLGVRITPEQVAQAVWDAVHPKSRWAKGKVHHGVSKLDKALYLMKSLSPDRVAMCFARLIAGEGHHHHHH | soluble |
| GHHHHHHAIAENLYFQSQQVKQKHKKSDEYRVFVGNLPFSWLEDAVRSVFHSYGTVVDVEVPRKREQPERNRGFAFVYFSSREEALAATTLSGSRLDGRIIKVEWADDGSEHRKVGHEELTQRPTHPLASSQVYEWGGQQVQKQNDSVVSKETPNFMPSGALYKEQRMTRYGKELKFVEPLDARKPEQPWRMYVFKNGKLLEGEEGVFYIHQKSNYLFGRDRDVVDIPIDHPSASKQHAVLQFRQVMPKNGNKLVIKPYIMDLESTNGTFLNNERIESLRYYELLEKDLLRFGHSSREFILLTGHK | soluble |
| MAHHHHHHMTNRGVVNAEELRGAVCAIVSRYQKTPQRRLLVCVAGRPGSGKTTIANILAEEARELLRKVSSDPRDHAENAVVVMPMDGYHLYRKTLHAMPNREEAIARRGAEWTFDARKLCRDLQAIRLPSETADKKGAPLYDDVFVPSFDHSVGDPKERDICVSGSAAIVIVEGNYLLYRGTPTWAEVNRCFDMGVFQACPAATCARRLCRRHMAAWGISEAEAMVRATGSDAMNGDLVETTGKNADIVLHSIESSI | soluble |
| LENPLYYLHNFRQVLNWLQLRYADVLSADEQRFILDFAQLAEPSQALLVRMVMRKGRHFRLSKLSYPEIGDSAAALEPLLALGWVDEQAPLCLEELFGLLQKAEILQCFNGLAAKARKDQWLEELTQQGLAPQAFAQWCPALPDRLLSLTLMPLCDRLRLMFFGNLYQDWSEFVLADLGIYSYEKVEISADARGLRSREDVDGFLYLHECQEAFEAGAELPEVLAHIARFQTLNPWLEKRRAKLLFQLGQQCERLAQWALARQIYQECAYPGARSRLIRVLERSAQYQAALALAEQAAAAPESAAEAQHLLRIMPRLRRKLGGPPAPRAANREVQRLDLCLARDADGLAVELHVQAHLHQPQAPVHYVENSLINSLFGLLCWPAIFAPLPGAFFHPFQRGPVDLFSEDFHQRRSELFQACLAELDDGRYRQSIRQRFVAKWGLQSPFVFWGALSEELLDQALDCLPAEHLKHWFQRLLLDIKANRAGMPDLIQFWPEQKRYRMIEVKGPGDRLQDNQLRWLDFCQEHRMPVAVCYVQWQ | not soluble |
| MNLSNHFLVAMPDMEDAFFSQSVVYICKHDEDGALGIAINKPSPITMDMIFSATGKNIPFRMQHDSVMMGGPVQVERGYVVHTPIGNWQSSIGVSDNIALTSSRDVIENISREGAVDKILISIGYSSWGKGQLERELADNAWLTVPADEHILFDIPYEHRYAAAFAKLGIDPLALFSGAGHALEHHHHHH | soluble |
| MGSDKIHHHHHHMSESAESVELIKLPVSQLTLGMFVSAIDKNDKGQLAIANAGQIKHKDAILKLAKSGIKFVWVDAERSAEHCGLKKKTTNDSQTDNRKAPVSRDKQQAQAKVMLTEAKDLIRKVLSETFEGKAIEVAPFEALADTMIESVMLDADALKCMSALRSKDAYLLEHSVNVAFLLVTFGKYLQLDRDMLRQMAVGGILHDIGKIKVDNKVLHKPGKLTPEEFEHMKLHQVYELEIMNETTGLSQISKDICLMHHEKLDGRGYPRGLKDDEIPRHGRMSCIVDIFDALTATRCYKEAMSPAAAFKILLSLTPFHLDQQLVYEFIRCIGIYPVGSLVELSDGRIGIVWASKDRDALHPIVKCFYSLKVKRYTDVAMVDLLKSELYIERGVSPSSLDIDPTPFY | not soluble |
| GPGSMTEHICASLVLTRGPEGLQRRLPVRLPLSGKPITIGRAIDNDVVLEMDLIFSSQWHCQMFAQKCEPETSERVEEREAASDPSRCEGRHVDCEGQTEIPVKEQYSLWLVDVGSSNGTFVNGIRVASSAPTPLHHGDVIVLGGMRDVEVGKSLPMEDLPLEIVTWRVAMEGKSEEGFGFVATPPVFLSMEFVISQARQRALGALQDSPDPKVSTTSPLKLPLKRMRHEQETGSNKLYDDGDVTPKRRIREVSYPSGEDRSGGELARRSGTVAAYLDPNEANAWEVTTNSSSDVASTTGLPCPSSKATASRGYCNSDALAEPTKEDARETRVAPAVARETVQ | soluble |
| MVQLFSAFDRETIERNLQEEKFDLVIVGGGITGAGIALDATSRGMSVALVEMGDFASGTSSRSTKLVHGGLRYLQQFEIKEVADLGKERAIVYENGPHVTTPEWMMLPFHKGGNMGKTTASFGIRLYDYLAGVKKNERRKILSAKETLAKNPFVKKDGLKGSGYYVEYRTDDARLTIEVMKKAVELGANAINYTKAEHFLYDDKKQVVGVTVTDRLTGKAYDIKGHRVINAAGPWVDKVRKLDYATNNKHLRLTKGIHLVIDKQKFPMEQAVYFDTPDGRMVFAIPRDKKVYVGTTDTVYDEAVINPKALESDHNYVIKAINYMFPDVHISEKDIESSWAGVRPLIYEEGKDPSEISRKDEVWFSESGLITMAGGKLTGYRKMAEKLLDGVSKTLSKETGKKYKPVQTKHLPISGGDIGGSEQLEAFLSKKAKEGNNRFGWTLEEGREIAKRFGSNIDQLFTYAQEHKDQNETTLPNSLYAELRYSIQHEAVTTPIDFLLRRTGYLLFDMPYLLEWKDAVVDEMAKQFHWSDDVKQTYIEELNIQINDAREPADWHDRLEHHHHHH | soluble |
| GSQRVLVEPDAGAGVAVMKFKNPPVNSLSLEFLTELVISLEKLENDKSFRGVILTSDRPGVFSAGLDLTEMCGRSPAHYAGYWKAVQELWLRLYQSNLVLVSAINGACPAGGCLVALTCDYRILADNPRYCIGLNETQLGIIAPFWLKDTLENTIGHRAAERALQLGLLFPPAEALQVGIVDQVVPEEQVQSTALSAIAQWMAIPDHARQLTKAMMRKATASRLVTQRDADVQNFVSFISKDSIQKSLQMYLERLKEEKG | soluble |
